# According to a protein production outcome set (Wang et al. 2014):
# Test: label from the status in PepcDB records
# 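Note: failed if final PepcDB status was selected cloned or expressed and not failed if soluble or beyond.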
row,Sequence,protein production
1,MGQQELAFGGGEFHSLWSCRFGAATLARRGCAFRNALAIMRGFPSALAGVRRTMHTLQQLRSGELAGATRLDLSCGLREFPREIFELADSLEVLNLSGNALDSLPDDLGRLHRLKVLFCSANDFDELPAAVGDCPALSMVGFKSNRIERVPAAALPPALRWLILTDNRIATLPEELGRRPLQKLMLAGNRLEALPESMAACEGLELLRIAANRFQRLPAWLATLPRLAWLAYAGNPLCRLPALADSGIAALDWSELSLDGLIGEGASGVIHRAGWHQPDGSTRTVALKLFKGEVTSDGTPASEMAACLAAGRHAQLIEVLGQLAGHPQGRDGLVLELLDDAYRNLAGPPSLESCTRDVYPPGLRFELATALRLAASLAALMAHLHGRGISHGDFYAHNILWREDGACLLGDFGAASFLPDDAVLAGALRRLEVRAFACLLEELLERSEAPPGQASLSAALVELQRRCALPRVSERPDFGEIQAILRDLAARSQAFPQVR,failed
2,MGQSIKNNFLLNLSTTITGLLFPLITFPYASRILMADGIGQVQFFQSIIDYVSLCTALGIPLYAVREIARIRDNKELRSRTTIEILLLHAILTLVGYIVVFILAKTVAKIEIDASLFFLLSTTLFFNTIGVAWFYQAIEDFKYITLRSLFVRILSLVALFIFVKTKQDLFYYAGILVIGTVGNNIFNFFRLRKYIKLSKGEFKRLNLLRHLIPALKIFILNLVISIYVNLDSVMLGFLKNEESVGYYAAATRLTKAILGIVSSLGAVLLPRFSNMITNGQKEEFQLLANKAASFTIALSLPMSVGLIFMAAPIIHIFCGNGFEPSILTLKLVAPIVLFIGLSGIIGMQILYPQGREKYVIISTMVGACINLLINYLLIPQYGQYGAALGTVIAEFMVTVIMILLGRKYLPINILSKQNLHYLIGSIVISILLAFLFVFPLHEVNYLLIGILLSVIVYYAYLLMIKDTLALQLKKLLLSIFKQ,failed
3,MGQSLPLLIRLIVVIWLTISMVTACPRAPTHLNHGRRTRGDNGYKLIVADGPNGYVPGKTYNLLLLGSRTHLKVQHFTHFTITAEAHTGARRPQAASPRRVGRFQLFSDSLTQFNDRCVNTVSEADDLPKTEVQVMWVAPESGSGCVSLSAMVYEGPRAWFADDGNLSTVICERKPDAAAAQKECCACDEAKYSFVFEGIWSNETHPKDYPFAIWLTHFSDVIGASHESNFSFWGENHIATAGFRSLAEWGSPAALETELRANGPKLRTLIKAAGLWYPNVNQNTSSKFRVDRKHPKVSLVSMFGPSPDWVVGISGLDLCTEDCSWKESMDFDLFPWDAGTDSGISYMSPNSETQPPERMYRITTMYPEDPRAPFYNPKSREMTPLAKLYLRREKIVSRNCDDEFLQALQLEVSDDAEEQDTRAECRVGDYSAWSPCSVSCGKGIRMRSRQYLYPAAADQNKCARQLVAKEMCVAAIPECADGPAQSKDRDDDEGENLANSQSLVGSNGEGAGLCKTSPWSVWSECSASCGIGITMRTRTFVNHLGRKRCPHITIVEKNKCMRPDCTYEQVELPDPQCPTSQWSDWSPCSSTCGRGVTIRTRLLLLENGPDKESCTQRMELHQQKECVNPIDCHINAEQAKDICVQAPDPGPCRGTYMRYAYDPQNQHCYSFTYGGCRGNRNNFLTENDCLNTCNVLRSPYSSRVDQPRACVLSDWSVWSPCSVSCGVGVSESRRYVVTEPQNGGQPCSKRLVKSRSCAMPAC,failed
4,MGQTAFVVKTESYRLLWDCITYLDETTITKIKELGGLDAIALSHPHYYSTQVEWAETFDVPIYIHEDDKEWVMRPSSRIIYWSGESLQLADGITVHRLGGHFSGGSVLHWEEGNDGKGILLTGDIIQVVADERWVSFMYSYPNLIPLPARKVEEMVNRVKPLQFNRLYNAFHRVVKLEHHHHHH,not failed
5,MGRGRSSSSSSIESSSKSNPFGASSSTRNLSTDLRLGLSFGTSSGTQYFNGGYGYSVAAPAVEDAEYVAAVEEEEENECNSVGSFYVKVNMEGVPIGRKIDLMSLNGYRDLIRTLDFMFNASILWAEEEDMCNEKSHVLTYADKEGDWMMVGDVPWEMFLSTVRRLKISRANYHY,failed
6,MGRLSVAPLAQLNRLRVRLSLVFVLFLLLVIGLGAFSINRLSAFHNVAAEISGRWLLSNRIAGDLNNSISDFRATEGELLTARRGKDRGRAEGSLAVLDEEIADAKRRYETIEHDPIELDLYRQFSEQWRAYRELANRVLVLSQRDDKTDAIALYYQESRRAFTVANATLATLTERNVTGANEATQAEAVAYRHARDLIVNAIIVAALLMIAGVLYFVTAVTNPIAELVDRMHRISDNETEIDIPSTERPDEVGEIARAVVRFRDNTVALAQSRATLAEQARTLEITLANERRMAELQRNFVSMVSHEFRTPLTVIDGYAQRLSHIKPPLSLEAVQDRSSRIRAAVRRMTALIEDMLGASQVLDLATPGAFQRTEFSLHLLVHEVCEMHRESSPDAQIVEQWHADVPEVFHGDARLLFQAVSNLIGNAVKYSPPKTPVSVDVSMESGAILICVADQGIGIPEKDLGHVFERYVRGANVTGTAGAGVGLYIVRLAAELHGGTVSVRSAEGTGSRFLLRLPEAPAPAPLSA,failed
7,MGRSAVYTILTTGYVGSTGPGVAATVSYVADGGRHVVFDPGMVASRDHILGPLAELGLGPDDITDVVLSHHHPDNTMNVGLFGRATVHDHKVEYLGDQWRNRDAEGYELTPSLRLIRTPGHSLEDITLLAGTDTGVVAFAGDLWWHSDGPADDPVAPDREVLRASRLRVLAAADLIVPGHGSPLEHHHHHH,failed
8,MGRVYYGGVERTYLYRGRILNLALEGRYEIVEHKPAVAVIALREGRMLFVRQMRPAVGLAPLEIPAGLIEPGEDPLEAARRELAEETGLSGDLTYLFSYFVSPGFTDEKTHVFLAENLKEVEAHPDEDEAIEVVWMRPEEALERHQRGEVEFSATGLVGVLYYHAFLRGR,not failed
9,MGRYKDETPAVRVYTVCDESRYMIVRNVPALGCGDDLMRLFMTYGEVEEFAKRKLDESSFLGNRLQISYAPEYENVNDTKDKLESRRKEVLARLNPQKEKSTSQVTKLAGPALTQTDNVSSQRREMEYQFHRGNAPVTRVSSDQEYFASSSMNQTVKTVREKLNKTREENISSLSHCKQIEESGNQKRLQPSSQTQPEESGNQKRLQPSSQIQPDLKRTRVDNRRRI,failed
10,MGSASSCRRIYIGTEANQYLAEQTLIYSIRKHLSDPSIEIIPLTQTQQRVGGTRFGFVRFTLPQAMGYQGKALYLDADQLALTDLAPIFDLLPDDKAIACVYEAEGLYNGKPHVQTWHTSVMLLDCEQLAWQPDELFATVVPNKQEPKPGQIRYRNFMELQWFEQERIAKLPPSWNHFNIVTPETNIVHFSHVRSQPWKNPRHELTDFWLGYLKEAIAAGYLRRRDVVAAVARGHVHPWTLKAIA,failed
11,MGSCCSCLNRDSVPDNHPTKFKVTNVDDEGVELGSGVMELTQSELVLHLHRREAVRWPYLCLRRYGYDSNLFSFESGRRCQTGQGIFAFKCSRAEEIFNLLQDLMQCNSINVMEEPVIITRNSHPAELDLPRAPQPPNALGYTVSSFSNGCPGEGPRFSAPRRLSTSSLRHPSLGEESTHALIAPDEQSHTYVNTPASEDDHRRGRHCLQPLPEGQAPFLPQARGPDQRDPQVFLQPGQVKFVLGPTPARRHMVKCQGLCPSLHDPPHHNNNNEAPSECPAQPKCTYENVTGGLWRGAGWRLSPEEPGWNGLAHRRAALLHYENLPPLPPVWESQAQQLGGEAGDDGDSRDGLTPSSNGFPDGEEDETPLQKPTSTRAAIRSHGSFPVPLTRRRGSPRVFNFDFRRPGPEPPRQLNYIQVELKGWGGDRPKGPQNPSSPQAPMPTTHPARSSDSYAVIDLKKTVAMSNLQRALPRDDGTARKTRHNSTDLPL,not failed
12,MGSIDRYIFRTTLASFALVLVSLTGVIWITQALRGIDLMTSQGQTILTFLGITSLVVPALVLIISPIALMIAISHTLNKLATDSEIIVMNAAGFSPFRLFYPFFYATCVVALLVAFIAAYLAPDGMRRIKQWDAEITADVLTNILQPGRFAQLDKNLTIRIRERLPGGILAGIFIDDRRDPNERVSIVAEHGEVMKNDTGSFLVLETGNLQRFEVGKRDPALVAFGRYGFDMSKFSGQGRDVTLGIRERYLWELFSPSEDDPVYKQIPGQFRSALHDSLLAPIYPFAFAVLTFAFLGAPRTTRQSRNFSIGSSIVAVFGLRMAGFACSVMAVKSPAAVLVQYAMVLGAIGVGMWMIVGGIVVEPPPRLMEAINRSNARIARLFGRPATA,failed
